Source: patent US20140134169A1, “Methods of Treating Ovarian Cancer with Dll4 Antagonists” (Regeneron Pharmaceuticals, Inc., priority 2012, published 2014)

Legend:
[1] = test system: human A549 tumor cells (non-small cell lung cancer); experiment: Growth of human A549 tumors implanted in humanized Dll4 SCID mice; format: in vivo; details: REGN421 2 mg/kg sc (6 mg/kg total)
Description: Tumor growth delay, TGD, was assessed as the difference in days between treated (T) versus control (C) tumors when each cohort reached a specified tumor size. The predetermined tumor size for this experiment was 600 mm^3.
Each mouse was implanted subcutaneously (sc) with 5×10^6 human A549 tumor cells (non-small cell lung cancer or “NSCLC”). […] A total of 36 mice were divided into 6 groups (n=6 per cohort). The first group was treated sc with hFc at 2 mg/kg; the second group was treated sc with REGN421 at 2 mg/kg; the third and fourth groups were treated ip with cisplatin at 2.5 and 4.5 mg/kg, respectively; the fifth group was treated sc with REGN421 at 2 mg/kg and ip with cisplatin at 2.5 mg/kg; and the sixth group was treated sc with REGN421 at 2 mg/kg and ip with cisplatin at 4.5 mg/kg. REGN421 was administered every 3-4 days starting on day 29 and mice received three doses total. Cisplatin was administered every 24 hours starting on day 29 and mice received two doses total.
To assess the effects of REGN421 and cisplatin as single agents or in combination we measured tumor size (volume), beginning three days before the initial REGN421 treatment, on the day of each agent treatment (days 29, 30, 33, 36) and thereafter every 3-4 days until tumors reached ˜600 mm^3 in size.

TOV-112D cells = experiment: TOV-112D ovarian xenograft (subcutaneous) tumor growth inhibition; format: in vivo, human
Description: (§1) Ovarian tumor xenograft cells were implanted into humanized Dll4 SCID mice or vendor SCID mice (i.e., SCID mice expressing native murine Dll4). After implantation, mice were treated with REGN421 (anti-human Dll4 antibody, binds to human Dll4), mDll4Ab1 (anti-murine Dll4 antibody, binds to murine Dll4), or a human Fc domain control protein. In one study, mice were treated with VEGF-Trap, mDll4Ab1 or VEGF-Trap plus mDll4Ab1. TOV-112D cells (5×10^6) were implanted subcutaneously into the right flank of humanized Dll4 (n=4) or vendor SCID mice (n=7). Treatment with REGN421 (2.5 mg/kg, 1×/week) or mDll4Ab1 (5 mg/kg, 1×/week) vs. hFc control was initiated one week after tumor cell implantation. Animals were treated for 2 to 3 weeks. A2780 cells (2×10^6) were implanted intraperitoneally into humanized Dll4 or vendor SCID mice (n=4-5). Treatment with REGN421 (2.5 mg/kg, 1×/week) or mDll4Ab1 (5 mg/kg, 1×/week) vs. hFc control was initiated one week after tumor cell implantation. For the A2780 combination study, simultaneous treatment with mDll4Ab1 (5 mg/kg, 1×/week) and VEGF-Trap (10 mg/kg, 2×/week) was initiated one week after tumor cell implantation. A VEGF-Trap single treatment arm was included in this study. Animals bearing A2780 tumors were treated for 4-5 weeks. SKOV-3 cells (5×10^6) in matrigel were implanted subcutaneously and tumor-bearing animals (n=10) were dosed with REGN421 (2.5 mg/kg) and mDll4Ab1 (5 mg/kg) once weekly. OVCAR-3 cells (1×10^7) were implanted subcutaneously into the right flank of vendor SCID mice (n=7). Treatment with mDll4Ab1 (5 mg/kg 1×/week) vs. hFc control was initiated 66 days after tumor cell implantation. Animals were treated for a total of 5 weeks. Tumor growth inhibition (TGI) was measured as detailed above.

A2780 cells = experiment: A2780 ovarian xenograft (intraperitoneal) tumor growth inhibition; format: in vivo, human; details: for % TGI: REGN421 2.5 mg/kg 1x/week
Description: as §1

B1: REGN421 (antibody, V domains shown)
VH: QVQLVESGGGVVQPGRSLRLSCAASGFTFSSYGMHWVRQAPGKGLEWVSFLWYDGTNKNYVESVKGRFTISRDNSKNMLYLEMNSLRAEDTAVYYCARDHDFRSGYEGWFDPWGQGTLVTVSS
VL: EIVLTQSPATLSLSPGERATLSCRASQSVSSYLAWYQQKPGQAPRLLIYDASNRATGIPARFSGSGSGTDFTLTISSLEPEDFAVYYCQHRSNWPPTFGGGTKVEIK
- TGD [1]: 8 days
- TGI (%) at Day 57 [1]: 54%
- % TGI (TOV-112D cells; Humanized Dll4 SCID mice, REGN421 2.5 mg/kg 1x/week): 86%
- % TGI (TOV-112D cells; SCID mice (native murine Dll4), REGN421 2.5 mg/kg or mDll4Ab1 5 mg/kg 1x/week): 0%
- anti-tumor activity (in words) (TOV-112D cells; vendor SCID mice): did not exhibit any appreciable anti-tumor activity
- % TGI (A2780 cells; Humanized Dll4 SCID mice, 2.5 mg/kg): 83%
- % TGI (A2780 cells; SCID mice (native murine Dll4), mDll4Ab1 5 mg/kg 1x/week, VEGF-Trap 10 mg/kg 2x/week): −37%
- anti-tumor activity (in words) (A2780 cells; vendor SCID mice): did not exhibit any appreciable anti-tumor activity
